Broadly, the Kd is the constant that tells how readily two partners part at equilibrium.

Kd data for one molecule are collected here from article PMC7430637, “Alternative splicing and allosteric regulation modulate the chromatin binding of UHRF1” (Nucleic Acids Research, 2020).

What all share (experiment): fluorescence polarisation; FAM-labelled H3(1-15) peptide, recombinant protein titrated; RT; as described (ref. 28)
What all share (conditions): both partners purified

Test [1] deals with T1, mUHRF1 V1 P-patch/R-S* (P293A/P294A/P295A/R298A/N299A/T300A/G301A/K302A/S303A), full-length (mouse, UniProt Q8VDF2-1 1-782, P293A | P294A | P295A | R298A | N299A | T300A | G301A | K302A | S303A).
T1 construct: UHRF1, mouse, splicing variant V1, NCBI NP_001104550.1, with nine alanine substitutions in Linker 2; source: E. coli BL21(DE3) RIL, purified (HisPur Cobalt-Resin)
T1 sequence (looked up): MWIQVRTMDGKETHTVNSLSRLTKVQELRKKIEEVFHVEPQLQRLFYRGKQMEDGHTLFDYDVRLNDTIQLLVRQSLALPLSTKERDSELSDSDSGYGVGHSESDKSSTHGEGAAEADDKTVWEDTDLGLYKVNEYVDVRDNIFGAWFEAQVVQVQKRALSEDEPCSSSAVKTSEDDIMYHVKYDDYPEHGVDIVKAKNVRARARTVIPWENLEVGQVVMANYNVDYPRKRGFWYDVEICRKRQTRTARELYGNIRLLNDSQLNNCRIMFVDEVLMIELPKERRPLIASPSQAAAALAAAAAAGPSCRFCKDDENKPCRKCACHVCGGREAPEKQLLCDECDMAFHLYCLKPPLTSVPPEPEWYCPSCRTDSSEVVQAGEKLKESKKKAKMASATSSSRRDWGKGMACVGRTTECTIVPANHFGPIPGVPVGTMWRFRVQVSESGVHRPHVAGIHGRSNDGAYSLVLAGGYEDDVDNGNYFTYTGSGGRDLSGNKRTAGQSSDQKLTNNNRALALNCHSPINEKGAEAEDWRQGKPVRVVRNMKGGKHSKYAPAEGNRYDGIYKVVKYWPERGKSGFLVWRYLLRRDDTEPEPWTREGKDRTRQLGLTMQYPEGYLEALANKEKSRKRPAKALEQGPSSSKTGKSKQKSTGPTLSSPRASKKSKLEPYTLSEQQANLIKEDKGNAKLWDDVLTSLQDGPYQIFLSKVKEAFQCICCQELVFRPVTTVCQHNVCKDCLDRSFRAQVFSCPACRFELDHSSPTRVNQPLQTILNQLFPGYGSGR

The target of test [2] is T2, mTTD-PHD V1 P-patch* (P293A/P294A/P295A) (mouse, UniProt Q8VDF2-1 122-380, P293A | P294A | P295A).
T2 construct: UHRF1, mouse, splicing variant V1 (NCBI NP_001104550.1), TTD-Linker 2-PHD, residues 122-380 as told for wild-type mTTD-PHD V1; source: E. coli BL21(DE3) RIL, purified (HisPur Cobalt-Resin)
T2 sequence (looked up): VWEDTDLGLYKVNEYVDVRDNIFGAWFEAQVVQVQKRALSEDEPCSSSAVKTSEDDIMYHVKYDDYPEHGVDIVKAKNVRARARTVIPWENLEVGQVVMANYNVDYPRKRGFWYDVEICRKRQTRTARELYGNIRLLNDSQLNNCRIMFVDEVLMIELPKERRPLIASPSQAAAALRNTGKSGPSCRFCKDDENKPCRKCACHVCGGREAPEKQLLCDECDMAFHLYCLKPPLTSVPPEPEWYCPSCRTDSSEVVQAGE

Test [3] addresses T3, mTTD-PHD V1 R298* (R298A) (mouse, UniProt Q8VDF2-1 122-380, R298A).
T3 construct: UHRF1, mouse, splicing variant V1 (NCBI NP_001104550.1), TTD-Linker 2-PHD, residues 122-380 as told for wild-type mTTD-PHD V1; source: E. coli BL21(DE3) RIL, purified (HisPur Cobalt-Resin)
T3 sequence (looked up): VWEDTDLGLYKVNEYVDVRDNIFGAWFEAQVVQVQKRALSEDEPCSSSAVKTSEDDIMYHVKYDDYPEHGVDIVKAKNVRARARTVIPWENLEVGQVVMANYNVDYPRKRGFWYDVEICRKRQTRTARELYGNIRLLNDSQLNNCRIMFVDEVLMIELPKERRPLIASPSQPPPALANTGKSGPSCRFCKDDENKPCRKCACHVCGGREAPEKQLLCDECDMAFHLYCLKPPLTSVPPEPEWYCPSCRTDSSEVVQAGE

For test [4], the target named is T4, mUHRF1 V1 R-S* (R298A/N299A/T300A/G301A/K302A/S303A), full-length (mouse, UniProt Q8VDF2-1 1-782, R298A | N299A | T300A | G301A | K302A | S303A).
T4 construct: UHRF1, mouse, splicing variant V1, NCBI NP_001104550.1, with six alanine substitutions in Linker 2; source: E. coli BL21(DE3) RIL, purified (HisPur Cobalt-Resin)
T4 sequence (looked up): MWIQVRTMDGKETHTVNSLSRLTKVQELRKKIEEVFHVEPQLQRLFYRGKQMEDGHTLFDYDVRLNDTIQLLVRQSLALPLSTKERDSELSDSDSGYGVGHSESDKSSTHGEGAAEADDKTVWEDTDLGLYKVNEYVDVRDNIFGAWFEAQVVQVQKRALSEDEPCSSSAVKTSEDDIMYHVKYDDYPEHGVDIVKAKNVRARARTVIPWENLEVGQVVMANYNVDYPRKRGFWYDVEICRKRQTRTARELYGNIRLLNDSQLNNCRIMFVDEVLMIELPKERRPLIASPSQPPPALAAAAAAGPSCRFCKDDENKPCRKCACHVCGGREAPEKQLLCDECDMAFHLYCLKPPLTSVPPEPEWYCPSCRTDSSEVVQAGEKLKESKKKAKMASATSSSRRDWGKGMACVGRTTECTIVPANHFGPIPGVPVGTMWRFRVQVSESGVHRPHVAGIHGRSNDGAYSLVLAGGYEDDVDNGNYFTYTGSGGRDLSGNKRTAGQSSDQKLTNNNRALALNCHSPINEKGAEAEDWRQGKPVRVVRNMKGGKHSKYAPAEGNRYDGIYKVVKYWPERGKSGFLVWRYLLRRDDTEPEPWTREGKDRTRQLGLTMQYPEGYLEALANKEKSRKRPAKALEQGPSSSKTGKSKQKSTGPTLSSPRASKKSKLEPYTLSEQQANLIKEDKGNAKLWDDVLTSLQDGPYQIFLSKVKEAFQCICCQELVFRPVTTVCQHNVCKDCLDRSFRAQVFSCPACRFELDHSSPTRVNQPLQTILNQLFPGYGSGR

Test [5] deals with T5, mUHRF1 V1 mLinker 2 V1* (P293A/P294A/P295A/L297A/R298A/N299A/T300A/G301A/K302A/S303A), full-length (mouse, UniProt Q8VDF2-1 1-782, P293A | P294A | P295A | L297A | R298A | N299A | T300A | G301A | K302A | S303A).
T5 construct: UHRF1, mouse, splicing variant V1, NCBI NP_001104550.1, with ten alanine substitutions in Linker 2; source: E. coli BL21(DE3) RIL, purified (HisPur Cobalt-Resin)
T5 sequence (looked up): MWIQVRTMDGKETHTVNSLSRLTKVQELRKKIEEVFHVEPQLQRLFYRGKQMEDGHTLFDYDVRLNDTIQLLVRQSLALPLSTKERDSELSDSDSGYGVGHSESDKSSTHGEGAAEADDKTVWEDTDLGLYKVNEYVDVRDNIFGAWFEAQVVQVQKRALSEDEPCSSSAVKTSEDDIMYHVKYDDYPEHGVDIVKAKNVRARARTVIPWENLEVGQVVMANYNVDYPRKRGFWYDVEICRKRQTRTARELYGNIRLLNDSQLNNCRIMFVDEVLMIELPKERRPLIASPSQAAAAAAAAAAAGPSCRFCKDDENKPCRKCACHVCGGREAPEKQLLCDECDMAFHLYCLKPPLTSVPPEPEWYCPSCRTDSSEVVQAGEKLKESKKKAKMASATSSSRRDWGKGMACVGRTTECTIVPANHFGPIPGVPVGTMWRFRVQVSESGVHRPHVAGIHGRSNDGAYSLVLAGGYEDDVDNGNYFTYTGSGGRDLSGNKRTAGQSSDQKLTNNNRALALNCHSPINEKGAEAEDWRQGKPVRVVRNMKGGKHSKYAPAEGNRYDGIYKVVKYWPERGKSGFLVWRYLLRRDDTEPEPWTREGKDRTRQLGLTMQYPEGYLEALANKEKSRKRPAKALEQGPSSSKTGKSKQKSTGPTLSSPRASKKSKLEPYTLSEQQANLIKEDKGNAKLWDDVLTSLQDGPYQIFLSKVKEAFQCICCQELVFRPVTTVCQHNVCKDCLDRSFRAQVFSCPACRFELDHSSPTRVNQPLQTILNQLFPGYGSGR

B1: FAM-H3(1-15)K9me3 peptide (N-terminally fluorescein-labelled) (peptide)
peptide: ARTKQTARKSTGGKA
modifications: fluorescein (FAM) on the N-terminus; K9 trimethylated
notes: histone H3 aa 1-15; also called FAM-H3K9me3; source: synthetic peptide (Synpeptide Co., Ltd)
As for B1, the Kd in test [1] came out at 13.9 ± 0.8 µM; in test [2], 10.2 ± 0.3 µM; in test [3], 5.9 ± 0.5 µM; in test [4] it was 11.1 ± 0.3 µM; in test [5] it was 12.6 ± 0.5 µM.
